In general, Km refers to the concentration of substrate that gives half-maximal velocity. Broadly, the kcat is the number of substrate molecules converted per active site and unit of time at saturation.

Substrate in this data set: O=[N+]([O-])c1ccc(O[C@@H]2O[C@H](CO)[C@@H](O)[C@H](O)[C@H]2O)cc1
Nature of the data set: purified protein. To be noted: 0-100 mM substrate, 15 min.

B1: β-glucosidase B (BglB) (Paenibacillus polymyxa; N160L) (protein)
chain: MSENTFIFPATFMWGTSTSSYQIEGGTDEGGRTPSIWDTFCQIPGKVIGGDCGDVACDHFHHFKEDVQLMKQLGFLHYRFSVAWPRIMPAAGIINEEGLLFYEHLLDEIELAGLIPMLTLYHWDLPQWIEDEGGWTQRETIQHFKTYASVIMDRFGERILWWNTINEPYCASILGYGTGEHAPGHENWREAFTAAHHILMCHGIASNLHKEKGLTGKIGITLNMEHVDAASERPEDVAAAIRRDGFINRWFAEPLFNGKYPEDMVEWYGTYLNGLDFVQPGDMELIQQPGDFLGINYYTRSIIRSTNDASLLQVEQVHMEEPVTDMGWEIHPESFYKLLTRIEKDFSKGLPILITENGAAMRDELVNGQIEDTGRHGYIEEHLKACHRFIEEGGQLKGYFVWSFLDNFEWAWGYSKRFGIVHINYETQERTPKQSALWFKQMMAKNGF
As for B1, the Michaelis-Menten constant (Km) was 13.8 ± 1.6 mM and the catalytic constant (kcat) stood at 3.245 ± 0.127 s⁻¹.

B2: β-glucosidase B (BglB) (Paenibacillus polymyxa; N160G) (protein)
chain: MSENTFIFPATFMWGTSTSSYQIEGGTDEGGRTPSIWDTFCQIPGKVIGGDCGDVACDHFHHFKEDVQLMKQLGFLHYRFSVAWPRIMPAAGIINEEGLLFYEHLLDEIELAGLIPMLTLYHWDLPQWIEDEGGWTQRETIQHFKTYASVIMDRFGERIGWWNTINEPYCASILGYGTGEHAPGHENWREAFTAAHHILMCHGIASNLHKEKGLTGKIGITLNMEHVDAASERPEDVAAAIRRDGFINRWFAEPLFNGKYPEDMVEWYGTYLNGLDFVQPGDMELIQQPGDFLGINYYTRSIIRSTNDASLLQVEQVHMEEPVTDMGWEIHPESFYKLLTRIEKDFSKGLPILITENGAAMRDELVNGQIEDTGRHGYIEEHLKACHRFIEEGGQLKGYFVWSFLDNFEWAWGYSKRFGIVHINYETQERTPKQSALWFKQMMAKNGF
B2: the Km was found to be 3.5 ± 0.2 mM and the kcat came to 9.81 ± 0.137 s⁻¹.

B3: β-glucosidase B (BglB) (Paenibacillus polymyxa; N160S) (protein)
chain: MSENTFIFPATFMWGTSTSSYQIEGGTDEGGRTPSIWDTFCQIPGKVIGGDCGDVACDHFHHFKEDVQLMKQLGFLHYRFSVAWPRIMPAAGIINEEGLLFYEHLLDEIELAGLIPMLTLYHWDLPQWIEDEGGWTQRETIQHFKTYASVIMDRFGERISWWNTINEPYCASILGYGTGEHAPGHENWREAFTAAHHILMCHGIASNLHKEKGLTGKIGITLNMEHVDAASERPEDVAAAIRRDGFINRWFAEPLFNGKYPEDMVEWYGTYLNGLDFVQPGDMELIQQPGDFLGINYYTRSIIRSTNDASLLQVEQVHMEEPVTDMGWEIHPESFYKLLTRIEKDFSKGLPILITENGAAMRDELVNGQIEDTGRHGYIEEHLKACHRFIEEGGQLKGYFVWSFLDNFEWAWGYSKRFGIVHINYETQERTPKQSALWFKQMMAKNGF
Turning to B3, the Km is reported as 4.9 ± 0.2 mM and the kcat is 4.527 ± 0.05 s⁻¹.

B4: β-glucosidase B (BglB) (Paenibacillus polymyxa; N160C) (protein)
chain: MSENTFIFPATFMWGTSTSSYQIEGGTDEGGRTPSIWDTFCQIPGKVIGGDCGDVACDHFHHFKEDVQLMKQLGFLHYRFSVAWPRIMPAAGIINEEGLLFYEHLLDEIELAGLIPMLTLYHWDLPQWIEDEGGWTQRETIQHFKTYASVIMDRFGERICWWNTINEPYCASILGYGTGEHAPGHENWREAFTAAHHILMCHGIASNLHKEKGLTGKIGITLNMEHVDAASERPEDVAAAIRRDGFINRWFAEPLFNGKYPEDMVEWYGTYLNGLDFVQPGDMELIQQPGDFLGINYYTRSIIRSTNDASLLQVEQVHMEEPVTDMGWEIHPESFYKLLTRIEKDFSKGLPILITENGAAMRDELVNGQIEDTGRHGYIEEHLKACHRFIEEGGQLKGYFVWSFLDNFEWAWGYSKRFGIVHINYETQERTPKQSALWFKQMMAKNGF
On to B4, for which the Km is given as 4.3 ± 0.3 mM and the kcat stood at 9.147 ± 0.157 s⁻¹.

B5: β-glucosidase B (BglB) (Paenibacillus polymyxa; N160M) (protein)
chain: MSENTFIFPATFMWGTSTSSYQIEGGTDEGGRTPSIWDTFCQIPGKVIGGDCGDVACDHFHHFKEDVQLMKQLGFLHYRFSVAWPRIMPAAGIINEEGLLFYEHLLDEIELAGLIPMLTLYHWDLPQWIEDEGGWTQRETIQHFKTYASVIMDRFGERIMWWNTINEPYCASILGYGTGEHAPGHENWREAFTAAHHILMCHGIASNLHKEKGLTGKIGITLNMEHVDAASERPEDVAAAIRRDGFINRWFAEPLFNGKYPEDMVEWYGTYLNGLDFVQPGDMELIQQPGDFLGINYYTRSIIRSTNDASLLQVEQVHMEEPVTDMGWEIHPESFYKLLTRIEKDFSKGLPILITENGAAMRDELVNGQIEDTGRHGYIEEHLKACHRFIEEGGQLKGYFVWSFLDNFEWAWGYSKRFGIVHINYETQERTPKQSALWFKQMMAKNGF
With B5, the Km is reported as 14.1 ± 1.3 mM and the kcat was 4.162 ± 0.122 s⁻¹.

Source of the values: publication doi:10.1101/2025.11.24.690255v1.
